Legend:
Rap^BA3 = Rap^BA3 overexpression; cited from earlier work
[1] = molecular target: Rap^3T (Bacillus phage phi3T); assay: SEC-MALS; Rap^3T at 1 mg/ml, 50 mM Hepes (pH 7), 150 mM NaCl; apo, or preincubated with 100 μm pheromone (SRGHTS or RRGHTA) with 10 μm pheromone in the mobile phase
[2] = molecular target: T1, Rap^105 labelled through its His tag (MST) (Bacillus phage phi105); assay: MST
T1 chain: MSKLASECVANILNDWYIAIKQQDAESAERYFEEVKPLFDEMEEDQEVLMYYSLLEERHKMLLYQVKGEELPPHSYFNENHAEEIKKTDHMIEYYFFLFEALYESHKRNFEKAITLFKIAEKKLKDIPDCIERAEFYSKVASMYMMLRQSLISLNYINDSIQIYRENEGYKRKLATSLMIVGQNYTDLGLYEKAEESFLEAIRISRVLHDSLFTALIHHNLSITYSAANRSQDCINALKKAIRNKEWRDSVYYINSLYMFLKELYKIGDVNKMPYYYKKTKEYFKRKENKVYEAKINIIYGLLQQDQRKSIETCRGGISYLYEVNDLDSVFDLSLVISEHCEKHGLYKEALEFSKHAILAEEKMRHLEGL

[3] = molecular target: Rap^105 (Bacillus phage phi105); assay: thermal shift assay; Sypro Orange, 50 μm protein, 100 μm synthetic peptide, 20 mM Tris (pH 8), 250 mM NaCl (or filtered supernatant in the maturation assays), heated from 20 to 85°C
[4] = molecular target: Rap^105 labelled through its His tag (MST) (Bacillus phage phi105); assay: MST; Rap^105 labelled with RED-tris-NTA on the His tag at 250 nM; peptide in a 16-point 2-fold dilution from 2 to 3 x 10^-5 μm; PBS with 0,02% tween; 15 min at room temperature; Hill model

For “RRGQT [peptide that relieves Rap^BA3 repression in previous work]”, the “relief of Rap^BA3 repression of sporulation and competence” value (Rap^BA3) is listed as “repression is relieved”.

Rap^3T (receptor) gave a stoichiometry N [1] of 2.

B1: ERPVGT (peptide)
peptide: ERPVGT
For B1, the EC50 [2] was 38.2 nM, the stabilization of the denaturation temperature [3] was 9 degrees and the EC50 [4] was 34 nM.

From paper PMC11343458, “Extracellular proteolysis of tandemly duplicated pheromone propeptides affords additional complexity to bacterial quorum sensing” (PLOS Biology, 2024)
